{"source": "patent US20110166062A1", "binders": {"B1": {"name": "mt-297 (peptide)", "peptide": "Y[Aib]QGTFTSDYSIYLDKQAA[Aib]EFVCWLMNGGPSSGAPPPSK(Palmitoyl)-NH2", "modifications": "N-terminus assumed", "SMILES": "CCCCCCCCCCCCCCCC(=O)NCCCC[C@H](NC(=O)[C@H](CO)NC(=O)[C@@H]1CCCN1C(=O)[C@@H]1CCCN1C(=O)[C@@H]1CCCN1C(=O)[C@H](C)NC(=O)CNC(=O)[C@H](CO)NC(=O)[C@H](CO)NC(=O)[C@@H]1CCCN1C(=O)CNC(=O)CNC(=O)[C@H](CC(N)=O)NC(=O)[C@H](CCSC)NC(=O)[C@H](CC(C)C)NC(=O)[C@H](Cc1c[nH]c2ccccc12)NC(=O)[C@H](CS)NC(=O)[C@@H](NC(=O)[C@H](Cc1ccccc1)NC(=O)[C@H](CCC(=O)O)NC(=O)C(C)(C)NC(=O)[C@H](C)NC(=O)[C@H](C)NC(=O)[C@H](CCC(N)=O)NC(=O)[C@H](CCCCN)NC(=O)[C@H](CC(=O)O)NC(=O)[C@H](CC(C)C)NC(=O)[C@H](Cc1ccc(O)cc1)NC(=O)[C@@H](NC(=O)[C@H](CO)NC(=O)[C@H](Cc1ccc(O)cc1)NC(=O)[C@H](CC(=O)O)NC(=O)[C@H](CO)NC(=O)[C@@H](NC(=O)[C@H](Cc1ccccc1)NC(=O)[C@@H](NC(=O)CNC(=O)[C@H](CCC(N)=O)NC(=O)C(C)(C)NC(=O)[C@@H](N)Cc1ccc(O)cc1)[C@@H](C)O)[C@@H](C)O)[C@@H](C)CC)C(C)C)C(N)=O"}}, "test_in_all_cases": "cell-based or functional assay", "key": {"[1]": {"biological_target": "T1, GIP receptor, P48546", "T1 chain": "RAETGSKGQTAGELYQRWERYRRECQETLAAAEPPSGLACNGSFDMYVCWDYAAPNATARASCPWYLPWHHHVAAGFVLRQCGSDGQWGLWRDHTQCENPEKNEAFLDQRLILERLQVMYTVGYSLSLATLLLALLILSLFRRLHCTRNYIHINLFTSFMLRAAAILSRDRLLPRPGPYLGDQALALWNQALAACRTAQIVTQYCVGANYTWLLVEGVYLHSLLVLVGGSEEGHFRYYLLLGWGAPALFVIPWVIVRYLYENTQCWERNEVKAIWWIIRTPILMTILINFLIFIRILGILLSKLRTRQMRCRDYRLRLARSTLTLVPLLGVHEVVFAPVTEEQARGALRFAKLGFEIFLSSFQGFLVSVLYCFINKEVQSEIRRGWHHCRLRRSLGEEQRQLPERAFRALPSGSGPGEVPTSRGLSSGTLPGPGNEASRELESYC"}, "[2]": {"biological_target": "T2, GLP-1 receptor, P43220", "T2 chain": "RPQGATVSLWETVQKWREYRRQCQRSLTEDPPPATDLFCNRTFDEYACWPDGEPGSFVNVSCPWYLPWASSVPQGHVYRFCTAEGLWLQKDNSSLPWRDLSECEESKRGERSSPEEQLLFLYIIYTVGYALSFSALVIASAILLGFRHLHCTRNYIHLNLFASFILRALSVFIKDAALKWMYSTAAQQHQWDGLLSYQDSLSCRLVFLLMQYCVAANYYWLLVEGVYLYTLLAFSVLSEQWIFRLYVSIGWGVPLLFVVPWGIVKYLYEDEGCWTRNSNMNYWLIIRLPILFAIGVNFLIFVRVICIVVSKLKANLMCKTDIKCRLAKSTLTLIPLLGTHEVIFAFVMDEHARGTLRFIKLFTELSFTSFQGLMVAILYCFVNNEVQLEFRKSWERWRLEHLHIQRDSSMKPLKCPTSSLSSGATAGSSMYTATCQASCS"}, "[3]": {"biological_target": "glucagon receptor, P47871", "sequence (P47871 26-477 limits assumed)": "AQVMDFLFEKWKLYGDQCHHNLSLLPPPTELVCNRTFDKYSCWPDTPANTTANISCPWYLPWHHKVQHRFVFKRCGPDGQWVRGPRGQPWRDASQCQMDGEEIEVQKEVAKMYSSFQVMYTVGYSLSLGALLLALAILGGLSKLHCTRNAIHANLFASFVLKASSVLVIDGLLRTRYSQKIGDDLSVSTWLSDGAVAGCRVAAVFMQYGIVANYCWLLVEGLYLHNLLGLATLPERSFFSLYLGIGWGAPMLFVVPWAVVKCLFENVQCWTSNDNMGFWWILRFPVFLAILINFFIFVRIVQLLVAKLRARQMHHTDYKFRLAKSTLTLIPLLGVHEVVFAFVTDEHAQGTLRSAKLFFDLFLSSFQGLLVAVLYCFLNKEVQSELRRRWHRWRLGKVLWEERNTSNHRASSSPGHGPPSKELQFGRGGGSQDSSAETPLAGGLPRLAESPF"}}, "note": "Where no end group is shown, it is not given here. [ ]: non-standard residue; d: D form. The star is where a group is joined. Palmitoyl = CCCCCCCCCCCCCCCC(=O)*; Aib = CC(C)(N)C(=O)O"}
{"binder": "B1", "values": [{"measurement": "EC50", "setting": "[1]", "result": 16.8, "unit": "pM"}, {"measurement": "EC50", "setting": "[2]", "result": 12.9, "unit": "pM"}, {"measurement": "EC50", "setting": "[3]", "result": 13.2, "unit": "pM"}]}
